Data reported in patent US20250313625A1 (ELPISCIENCE SUZHOU BIOPHARMA, published 2025).

What was measured:
[1] = target: T1, LAG3 D1 domain extra loop peptide (biotin labelled (site not stated)); test: ELISA format I: biotin labelled LAG3 D1 domain extra loop peptide on plate coated antibody; axis printed as Ab Conc. (nM)
T1 peptide: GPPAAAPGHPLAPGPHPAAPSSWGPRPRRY
Method: (§1) In ELISA binding assay of format I (FIG. 9A), biotin labelled LAG3 D1 domain extra loop peptide was incubated with ELISA microplate coated anti-LAG3 antibodies. After washing, HRP labeled anti-SA 2nd antibody (Sigma) was added and incubated at 37° C. for 1 hour. Then, 100 μl/well of TMB solution (Biotechnology) was added. After incubation for 15 minutes at room temperature, the reaction was stopped by the addition of 50 μl of 1N HCl. OD 450 nm was read. In ELISA binding assay of format II (FIG. 9B), biotin labelled LAG3 D1 domain extra loop peptide and anti-LAG3 antibodies were co-incubated in ELISA microplate coated with SA. After washing, HRP labeled anti-human Fc 2nd antibody (Sigma) was added and incubated at 37° C. for 1 hour. Then, 100 μl/well of TMB solution (Biotechnology) was added. After incubation for 15 minutes at room temperature, the reaction was stopped by the addition of 50 μl of 1N HCl. OD 450 nm was read.

[2] = target: T1, LAG3 D1 domain extra loop peptide; test: ELISA format II: biotin labelled LAG3 D1 domain extra loop peptide and antibody co-incubated on streptavidin coated plate, anti-human Fc detection
Method: as §1

B1: BMS-986016 (antibody, V domains shown)
VH: QVQLQQWGAGLLKPSETLSLTCAVYGGSFSDYYWNWIRQPPGKGLEWIGEINHRGSTNSNPSLKSRVTLSLDTSKNQFSLKLRSVTAADTAVYYCAFGYSDYEYNWFDPWGQGTLVTVSS
VL: EIVLTQSPATLSLSPGERATLSCRASQSISSYLAWYQQKPGQAPRLLIYDASNRATGIPARFSGSGSGTDFTLTISSLEPEDFAVYYCQQRSNWPLTFGQGTNLEIK
- EC50 (read off the curve) [1]: ~0.08 nM
- EC50 (read off the curve) [2]: ~0.2 nM
